Legend:
Human Factor B (human) = Human Factor B (human) (UniProt P00751); experiment: cell-based or functional assay
EGVD/AE-ACT = experiment: reaction of the protease with the serpin bait EGVD/AE-ACT
[1] = target: alpha-2-marcroglobin (A2M) (UniProt P01023); experiment: inhibition of the protease by the plasma inhibitor
Chain of alpha-2-marcroglobin (A2M) (P01023 24-1474): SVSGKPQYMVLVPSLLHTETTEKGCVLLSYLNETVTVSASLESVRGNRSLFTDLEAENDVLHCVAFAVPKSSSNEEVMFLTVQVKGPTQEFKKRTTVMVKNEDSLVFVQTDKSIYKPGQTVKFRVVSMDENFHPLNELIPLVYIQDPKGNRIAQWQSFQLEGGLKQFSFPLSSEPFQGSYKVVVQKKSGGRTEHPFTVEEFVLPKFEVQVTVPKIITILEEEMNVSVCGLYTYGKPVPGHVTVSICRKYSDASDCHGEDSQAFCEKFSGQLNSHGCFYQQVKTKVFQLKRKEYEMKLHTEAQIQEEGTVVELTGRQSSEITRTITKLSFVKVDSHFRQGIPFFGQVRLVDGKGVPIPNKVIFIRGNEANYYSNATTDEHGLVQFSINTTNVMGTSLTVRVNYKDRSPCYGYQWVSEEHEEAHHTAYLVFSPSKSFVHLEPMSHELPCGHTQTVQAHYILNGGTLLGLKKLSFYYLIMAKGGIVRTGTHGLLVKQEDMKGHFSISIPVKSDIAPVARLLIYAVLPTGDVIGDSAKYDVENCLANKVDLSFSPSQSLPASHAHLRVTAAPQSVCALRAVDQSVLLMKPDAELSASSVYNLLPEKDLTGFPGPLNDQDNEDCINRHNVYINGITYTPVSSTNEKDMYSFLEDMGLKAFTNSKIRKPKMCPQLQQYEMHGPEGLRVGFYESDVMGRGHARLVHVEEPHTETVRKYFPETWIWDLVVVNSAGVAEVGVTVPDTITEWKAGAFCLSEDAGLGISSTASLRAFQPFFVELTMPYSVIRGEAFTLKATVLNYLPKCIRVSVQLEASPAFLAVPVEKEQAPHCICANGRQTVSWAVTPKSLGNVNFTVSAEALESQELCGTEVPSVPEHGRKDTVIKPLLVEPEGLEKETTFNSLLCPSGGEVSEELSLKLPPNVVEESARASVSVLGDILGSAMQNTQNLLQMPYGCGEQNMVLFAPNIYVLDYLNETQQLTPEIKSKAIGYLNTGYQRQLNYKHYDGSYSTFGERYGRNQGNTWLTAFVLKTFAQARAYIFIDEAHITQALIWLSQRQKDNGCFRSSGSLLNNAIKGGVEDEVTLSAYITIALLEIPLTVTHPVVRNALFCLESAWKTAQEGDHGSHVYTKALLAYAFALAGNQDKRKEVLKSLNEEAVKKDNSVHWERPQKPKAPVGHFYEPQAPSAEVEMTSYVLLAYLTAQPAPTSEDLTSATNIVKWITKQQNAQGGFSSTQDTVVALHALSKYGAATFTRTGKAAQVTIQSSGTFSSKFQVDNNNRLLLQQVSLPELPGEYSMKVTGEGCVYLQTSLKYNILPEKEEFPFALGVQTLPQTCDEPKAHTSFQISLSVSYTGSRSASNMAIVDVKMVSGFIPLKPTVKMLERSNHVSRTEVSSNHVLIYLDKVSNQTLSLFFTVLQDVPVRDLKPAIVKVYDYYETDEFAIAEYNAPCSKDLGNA

Chain of Human Factor B (human) (P00751 26-764 limits assumed): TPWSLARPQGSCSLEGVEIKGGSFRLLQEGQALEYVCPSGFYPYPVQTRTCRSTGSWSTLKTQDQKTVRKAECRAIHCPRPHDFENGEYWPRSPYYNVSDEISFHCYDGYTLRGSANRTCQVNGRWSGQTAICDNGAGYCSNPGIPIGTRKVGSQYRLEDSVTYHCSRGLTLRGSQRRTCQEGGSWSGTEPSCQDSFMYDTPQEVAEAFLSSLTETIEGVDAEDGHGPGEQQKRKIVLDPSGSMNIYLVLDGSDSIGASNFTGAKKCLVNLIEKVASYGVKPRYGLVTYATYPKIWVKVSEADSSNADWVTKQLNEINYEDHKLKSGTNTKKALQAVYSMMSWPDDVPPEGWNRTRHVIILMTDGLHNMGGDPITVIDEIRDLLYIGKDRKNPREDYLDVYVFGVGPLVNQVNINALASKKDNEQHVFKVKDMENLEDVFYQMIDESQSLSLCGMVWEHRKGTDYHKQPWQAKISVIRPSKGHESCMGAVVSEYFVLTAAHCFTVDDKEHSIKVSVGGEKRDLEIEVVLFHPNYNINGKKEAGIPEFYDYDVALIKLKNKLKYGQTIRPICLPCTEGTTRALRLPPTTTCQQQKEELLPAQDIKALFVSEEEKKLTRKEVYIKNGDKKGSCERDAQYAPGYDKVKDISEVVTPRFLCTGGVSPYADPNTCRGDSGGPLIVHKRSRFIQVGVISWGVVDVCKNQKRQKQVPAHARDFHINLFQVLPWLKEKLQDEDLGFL

| Binder | fB Cleavage EC50 (Human Factor B (human)) | k*app (second order rate constant) (EGVD/AE-ACT) | also measured |
| --- | --- | --- | --- |
| chymase C22S/F173L/Y215H/A226R (enzyme) IIGGTESKPHSRPYMAYLEIVTSNGPSKFCGGFLIRRNFVLTAAHCAGRSITVTLGAHNITEEEDTWQKLEVIKQFRHPKYNTSTLHHDIMLLKLKEKASLTLAVGTLPFPSQFNFVPPGRMCRVAGWGRTGVLKPGSDTLQEVKLRLMDPQACSHLRDFDHNLQLCVGNPRKTKSAFKGDSGGPLLCAGVAQGIVSHGRSDAKPPRVFTRISHYRPWINQILQAN | 5.99 µM | – | – |
| chymase C22S/K192R/A226R (enzyme) IIGGTESKPHSRPYMAYLEIVTSNGPSKFCGGFLIRRNFVLTAAHCAGRSITVTLGAHNITEEEDTWQKLEVIKQFRHPKYNTSTLHHDIMLLKLKEKASLTLAVGTLPFPSQFNFVPPGRMCRVAGWGRTGVLKPGSDTLQEVKLRLMDPQACSHFRDFDHNLQLCVGNPRKTKSAFRGDSGGPLLCAGVAQGIVSYGRSDAKPPRVFTRISHYRPWINQILQAN | – | 147 | – |
| chymase C22S/F41V/L99H/G151R/F173L/Y215R/R217T/A226R (enzyme) IIGGTESKPHSRPYMAYLEIVTSNGPSKVCGGFLIRRNFVLTAAHCAGRSITVTLGAHNITEEEDTWQKLEVIKQFRHPKYNTSTHHHDIMLLKLKEKASLTLAVGTLPFPSQFNFVPPGRMCRVAGWGRTGVLKPRSDTLQEVKLRLMDPQACSHLRDFDHNLQLCVGNPRKTKSAFKGDSGGPLLCAGVAQGIVSRGTSDAKPPRVFTRISHYRPWINQILQAN | – | 1130 | – |
| chymase C22S (enzyme) IIGGTESKPHSRPYMAYLEIVTSNGPSKFCGGFLIRRNFVLTAAHCAGRSITVTLGAHNITEEEDTWQKLEVIKQFRHPKYNTSTLHHDIMLLKLKEKASLTLAVGTLPFPSQFNFVPPGRMCRVAGWGRTGVLKPGSDTLQEVKLRLMDPQACSHFRDFDHNLQLCVGNPRKTKSAFKGDSGGPLLCAGVAQGIVSYGRSDAKPPAVFTRISHYRPWINQILQAN | – | 30.2 | – |
| chymase C22S/L160V/S189T/A226R (enzyme) IIGGTESKPHSRPYMAYLEIVTSNGPSKFCGGFLIRRNFVLTAAHCAGRSITVTLGAHNITEEEDTWQKLEVIKQFRHPKYNTSTLHHDIMLLKLKEKASLTLAVGTLPFPSQFNFVPPGRMCRVAGWGRTGVLKPGSDTLQEVKVRLMDPQACSHFRDFDHNLQLCVGNPRKTKTAFKGDSGGPLLCAGVAQGIVSYGRSDAKPPRVFTRISHYRPWINQILQAN | 6.64 µM | – | – |
| chymase C22S/L99Y/F173Y/K192R/S218L/A226R (enzyme) IIGGTESKPHSRPYMAYLEIVTSNGPSKFCGGFLIRRNFVLTAAHCAGRSITVTLGAHNITEEEDTWQKLEVIKQFRHPKYNTSTYHHDIMLLKLKEKASLTLAVGTLPFPSQFNFVPPGRMCRVAGWGRTGVLKPGSDTLQEVKLRLMDPQACSHYRDFDHNLQLCVGNPRKTKSAFRGDSGGPLLCAGVAQGIVSYGRLDAKPPRVFTRISHYRPWINQILQAN | – | – | kapp [1]: 3130 M⁻¹ s⁻¹ |
| chymase C22S/L99H/F173Y/K192R/S218L/A226R (enzyme) IIGGTESKPHSRPYMAYLEIVTSNGPSKFCGGFLIRRNFVLTAAHCAGRSITVTLGAHNITEEEDTWQKLEVIKQFRHPKYNTSTHHHDIMLLKLKEKASLTLAVGTLPFPSQFNFVPPGRMCRVAGWGRTGVLKPGSDTLQEVKLRLMDPQACSHYRDFDHNLQLCVGNPRKTKSAFRGDSGGPLLCAGVAQGIVSYGRLDAKPPRVFTRISHYRPWINQILQAN | – | – | kapp [1]: 356 M⁻¹ s⁻¹ |
| chymase C22S/L99H/F173I/K192R/Y215K/R217T/S218I/A226R (enzyme) IIGGTESKPHSRPYMAYLEIVTSNGPSKFCGGFLIRRNFVLTAAHCAGRSITVTLGAHNITEEEDTWQKLEVIKQFRHPKYNTSTHHHDIMLLKLKEKASLTLAVGTLPFPSQFNFVPPGRMCRVAGWGRTGVLKPGSDTLQEVKLRLMDPQACSHIRDFDHNLQLCVGNPRKTKSAFRGDSGGPLLCAGVAQGIVSKGTIDAKPPRVFTRISHYRPWINQILQAN | – | 1040 | – |
| chymase C22S/F41R/L99Y/G151T/F173K/R217S/A226R (enzyme) IIGGTESKPHSRPYMAYLEIVTSNGPSKRCGGFLIRRNFVLTAAHCAGRSITVTLGAHNITEEEDTWQKLEVIKQFRHPKYNTSTYHHDIMLLKLKEKASLTLAVGTLPFPSQFNFVPPGRMCRVAGWGRTGVLKPTSDTLQEVKLRLMDPQACSHKRDFDHNLQLCVGNPRKTKSAFKGDSGGPLLCAGVAQGIVSYGSSDAKPPRVFTRISHYRPWINQILQAN | – | 684 | – |
| chymase F41V/L99H/G151V/F173Y/Y215K/R217G/A226R (enzyme) IIGGTECKPHSRPYMAYLEIVTSNGPSKVCGGFLIRRNFVLTAAHCAGRSITVTLGAHNITEEEDTWQKLEVIKQFRHPKYNTSTHHHDIMLLKLKEKASLTLAVGTLPFPSQFNFVPPGRMCRVAGWGRTGVLKPVSDTLQEVKLRLMDPQACSHYRDFDHNLQLCVGNPRKTKSAFKGDSGGPLLCAGVAQGIVSKGGSDAKPPRVFTRISHYRPWINQILQAN | – | 649 | – |
| chymase C22S/F41V/L99F/G151R/F173K/R217S/A226R (enzyme) IIGGTESKPHSRPYMAYLEIVTSNGPSKVCGGFLIRRNFVLTAAHCAGRSITVTLGAHNITEEEDTWQKLEVIKQFRHPKYNTSTFHHDIMLLKLKEKASLTLAVGTLPFPSQFNFVPPGRMCRVAGWGRTGVLKPRSDTLQEVKLRLMDPQACSHKRDFDHNLQLCVGNPRKTKSAFKGDSGGPLLCAGVAQGIVSYGSSDAKPPRVFTRISHYRPWINQILQAN | – | 652 | – |
| chymase C22S/F41I/L99W/G151L/F173K/R217S/A226R (enzyme) IIGGTESKPHSRPYMAYLEIVTSNGPSKICGGFLIRRNFVLTAAHCAGRSITVTLGAHNITEEEDTWQKLEVIKQFRHPKYNTSTWHHDIMLLKLKEKASLTLAVGTLPFPSQFNFVPPGRMCRVAGWGRTGVLKPLSDTLQEVKLRLMDPQACSHKRDFDHNLQLCVGNPRKTKSAFKGDSGGPLLCAGVAQGIVSYGSSDAKPPRVFTRISHYRPWINQILQAN | – | 1730 | – |
| chymase C22S/F41R/L99H/G151T/F173Y/Y215K/R217M/A226R (enzyme) IIGGTESKPHSRPYMAYLEIVTSNGPSKRCGGFLIRRNFVLTAAHCAGRSITVTLGAHNITEEEDTWQKLEVIKQFRHPKYNTSTHHHDIMLLKLKEKASLTLAVGTLPFPSQFNFVPPGRMCRVAGWGRTGVLKPTSDTLQEVKLRLMDPQACSHYRDFDHNLQLCVGNPRKTKSAFKGDSGGPLLCAGVAQGIVSKGMSDAKPPRVFTRISHYRPWINQILQAN | – | 1500 | – |
| chymase C22S/F173Y/A226R (enzyme) IIGGTESKPHSRPYMAYLEIVTSNGPSKFCGGFLIRRNFVLTAAHCAGRSITVTLGAHNITEEEDTWQKLEVIKQFRHPKYNTSTLHHDIMLLKLKEKASLTLAVGTLPFPSQFNFVPPGRMCRVAGWGRTGVLKPGSDTLQEVKLRLMDPQACSHYRDFDHNLQLCVGNPRKTKSAFKGDSGGPLLCAGVAQGIVSYGRSDAKPPRVFTRISHYRPWINQILQAN | 0.65 µM | – | fB Cleavage, 80% plasma EC50 (Human Factor B (human)): 21 µM |
| chymase C22S/F41R/L99G/G151T/F173Y/Y215R/R217M/A226R (enzyme) IIGGTESKPHSRPYMAYLEIVTSNGPSKRCGGFLIRRNFVLTAAHCAGRSITVTLGAHNITEEEDTWQKLEVIKQFRHPKYNTSTGHHDIMLLKLKEKASLTLAVGTLPFPSQFNFVPPGRMCRVAGWGRTGVLKPTSDTLQEVKLRLMDPQACSHYRDFDHNLQLCVGNPRKTKSAFKGDSGGPLLCAGVAQGIVSRGMSDAKPPRVFTRISHYRPWINQILQAN | – | 773 | – |

Second part, led by results:

| fB Cleavage EC50 (Human Factor B (human)) | Binder | k*app (second order rate constant) (EGVD/AE-ACT) | also measured |
| --- | --- | --- | --- |
| 0.83 µM | chymase C22S/S218I/A226R (enzyme) IIGGTESKPHSRPYMAYLEIVTSNGPSKFCGGFLIRRNFVLTAAHCAGRSITVTLGAHNITEEEDTWQKLEVIKQFRHPKYNTSTLHHDIMLLKLKEKASLTLAVGTLPFPSQFNFVPPGRMCRVAGWGRTGVLKPGSDTLQEVKLRLMDPQACSHFRDFDHNLQLCVGNPRKTKSAFKGDSGGPLLCAGVAQGIVSYGRIDAKPPRVFTRISHYRPWINQILQAN | – | – |
| 1.26 µM | chymase E21G/C22S/R61H/M135T/F173Y/D175N/A209V/A226R (enzyme) IIGGTGSKPHSRPYMAYLEIVTSNGPSKFCGGFLIRRNFVLTAAHCAGHSITVTLGAHNITEEEDTWQKLEVIKQFRHPKYNTSTLHHDIMLLKLKEKASLTLAVGTLPFPSQFNFVPPGRTCRVAGWGRTGVLKPGSDTLQEVKLRLMDPQACSHYRNFDHNLQLCVGNPRKTKSAFKGDSGGPLLCAGVVQGIVSYGRSDAKPPRVFTRISHYRPWINQILQAN | – | – |
| 3.74 µM | chymase C22S/P38Q/H100P/L116R/F123L/Q180H/A226R/R235S (enzyme) IIGGTESKPHSRPYMAYLEIVTSNGQSKFCGGFLIRRNFVLTAAHCAGRSITVTLGAHNITEEEDTWQKLEVIKQFRHPKYNTSTLPHDIMLLKLKEKASLTRAVGTLPLPSQFNFVPPGRMCRVAGWGRTGVLKPGSDTLQEVKLRLMDPQACSHFRDFDHNLHLCVGNPRKTKSAFKGDSGGPLLCAGVAQGIVSYGRSDAKPPRVFTRISHYSPWINQILQAN | – | – |
| 3.16 µM | chymase C22S/M135T/P150S/S152G/Q166H/D175N/A190T/A226R (enzyme) IIGGTESKPHSRPYMAYLEIVTSNGPSKFCGGFLIRRNFVLTAAHCAGRSITVTLGAHNITEEEDTWQKLEVIKQFRHPKYNTSTLHHDIMLLKLKEKASLTLAVGTLPFPSQFNFVPPGRTCRVAGWGRTGVLKSGGDTLQEVKLRLMDPHACSHFRNFDHNLQLCVGNPRKTKSTFKGDSGGPLLCAGVAQGIVSYGRSDAKPPRVFTRISHYRPWINQILQAN | – | – |
| 7.13 µM | chymase C22S/V138I/L160V/S189T/A226R (enzyme) IIGGTESKPHSRPYMAYLEIVTSNGPSKFCGGFLIRRNFVLTAAHCAGRSITVTLGAHNITEEEDTWQKLEVIKQFRHPKYNTSTLHHDIMLLKLKEKASLTLAVGTLPFPSQFNFVPPGRMCRIAGWGRTGVLKPGSDTLQEVKVRLMDPQACSHFRDFDHNLQLCVGNPRKTKTAFKGDSGGPLLCAGVAQGIVSYGRSDAKPPRVFTRISHYRPWINQILQAN | – | – |
| 7.98 µM | chymase C22S/S189T/A226R (enzyme) IIGGTESKPHSRPYMAYLEIVTSNGPSKFCGGFLIRRNFVLTAAHCAGRSITVTLGAHNITEEEDTWQKLEVIKQFRHPKYNTSTLHHDIMLLKLKEKASLTLAVGTLPFPSQFNFVPPGRMCRVAGWGRTGVLKPGSDTLQEVKLRLMDPQACSHFRDFDHNLQLCVGNPRKTKTAFKGDSGGPLLCAGVAQGIVSYGRSDAKPPRVFTRISHYRPWINQILQAN | – | – |
| 3.48 µM | chymase C22S/V138L/A226R (enzyme) IIGGTESKPHSRPYMAYLEIVTSNGPSKFCGGFLIRRNFVLTAAHCAGRSITVTLGAHNITEEEDTWQKLEVIKQFRHPKYNTSTLHHDIMLLKLKEKASLTLAVGTLPFPSQFNFVPPGRMCRLAGWGRTGVLKPGSDTLQEVKLRLMDPQACSHFRDFDHNLQLCVGNPRKTKSAFKGDSGGPLLCAGVAQGIVSYGRSDAKPPRVFTRISHYRPWINQILQAN | – | – |

— patent publication US20240117334A1, “FACTOR B PROTEASES” (Vertex Pharmaceuticals Incorporated, priority 2021, published 2024)
